The target of assay [1] is T1, Vβ17 on human CD8+ T cells (human).
T1 chain: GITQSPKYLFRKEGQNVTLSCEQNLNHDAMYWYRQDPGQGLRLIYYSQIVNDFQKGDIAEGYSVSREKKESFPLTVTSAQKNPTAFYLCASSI
Description: FACS.

The target of assay [2] is T1, Vβ17 on human CD8+ T cells. Description: FACS.

“And” between values parts separate entries of the source, which are not always exact repeats. Equal entries are not always repeated. Where two headings read alike, the source gives them in different places.

B1: VB13 (Vβ17×Null) bispecific antibody (bispecific antibody)
heavy 1: QVQLQESGPGLVKPSETLSLTCTVSGYSITSGYFWNWIRQPPGKGLEWIGYISYDGSNNYNPSLKSRVTISRDTSKNQFSLKLSSVTAADTAVYYCASPSPGTGYAVDYWGQGTLVTVSSASTKGPSVFPLAPCSRSTSESTAALGCLVKDYFPEPVTVSWNSGALTSGVHTFPAVLQSSGLYSLSSVVTVPSSSLGTKTYTCNVDHKPSNTKVDKRVESKYGPPCPPCPAPEAAGGPSVFLFPPKPKDTLMISRTPEVTCVVVDVSQEDPEVQFNWYVDGVEVHNAKTKPREEQFNSTYRVVSVLTVLHQDWLNGKEYKCKVSNKGLPSSIEKTISKAKGQPREPQVYTLPPSQEEMTKNQVSLSCAVKGFYPSDIAVEWESNGQPENNYKTTPPVLDSDGSFFLVSRLTVDKSRWQEGNVFSCSVMHEALHNRFTQKSLSLSLGK
light 1: DIQMTQSPSSLSASVGDRVTITCRSSQSLVHSNGNTYLHWYQQKPGKAPKFLIYKVSNRFSGVPSRFSGSGSGTDFTLTISSLQPEDFATYYCSQSTHVPFTFGQGTKLEIKRTVAAPSVFIFPPSDEQLKSGTASVVCLLNNFYPREAKVQWKVDNALQSGNSQESVTEQDSKDSTYSLSSTLTLSKADYEKHKVYACEVTHQGLSSPVTKSFNRGEC
heavy 2: not shown
light 2: not shown
As to B1, the EC50 in assay [1] was 12.6 nM; in assay [2] it was 1.4 nM and 1.5 nM.

B2: VB11 (anti-Vβ17/anti-CD123) bispecific antibody (bispecific antibody)
heavy 1: B1 heavy 1
light 1: B1 light 1
heavy 2: EVQLVQSGAEVKKPGESLKISCKGSGYSFTSYWISWVRQMPGKGLEWMGIIDPSDSDTRYSPSFQGQVTISADKSISTAYLQWSSLKASDTAMYYCARGDGSTDLDYWGQGTLVTVSSASTKGPSVFPLAPCSRSTSESTAALGCLVKDYFPEPVTVSWNSGALTSGVHTFPAVLQSSGLYSLSSVVTVPSSSLGTKTYTCNVDHKPSNTKVDKRVESKYGPPCPPCPAPEAAGGPSVFLFPPKPKDTLMISRTPEVTCVVVDVSQEDPEVQFNWYVDGVEVHNAKTKPREEQFNSTYRVVSVLTVLHQDWLNGKEYKCKVSNKGLPSSIEKTISKAKGQPREPQVYTLPPSQEEMTKNQVSLWCLVKGFYPSDIAVEWESNGQPENNYKTTPPVLDSDGSFFLYSRLTVDKSRWQEGNVFSCSVMHEALHNHYTQKSLSLSLGK
light 2: EIVLTQSPGTLSLSPGERATLSCRASQSVSSSYLAWYQQKPGQAPRLLIYGASSRATGIPDRFSGSGSGTDFTLTISRLEPEDFAVYYCQQDYGFPWTFGQGTKVEIKRTVAAPSVFIFPPSDEQLKSGTASVVCLLNNFYPREAKVQWKVDNALQSGNSQESVTEQDSKDSTYSLSSTLTLSKADYEKHKVYACEVTHQGLSSPVTKSFNRGEC
Regarding B2, the EC50 in assay [2] was 0.8 nM and 1.26 nM.

One may read the EC50 as the concentration at which the effect is half-maximal. A high value points to a need for much substance.

Values taken from patent publication US20260234252A1 (published 2026).
